These results are taken from patent US20060257887A1.

The test concerns the target GFP 1-10 OPT (Aequorea victoria) [GFP: P42212]. As to the kind of experiment: cell-based or functional assay.

Regarding “HPS-GFP 11 M2 (3-hexulose 6-phosphate synthase fused to GFP S11 M2; L221H, F223S, T225N)”, the complementation rate (fold (decrease)) amounted to 5.
